Experimental data: IntAct's records for PubMed 20543824

B1: Nuclear RNAi defective-3 protein (Caenorhabditis elegans), Q21691 (parent)
chain: MDLLDKVMGEMGSKPGSTAKKPATSASSTPRTNVWGTAKKPSSQQQPPKPLFTTPGSQQGSLGGRIPKREHTDRTGPDPKRKPLGGLSVPDSFNNFGTFRVQMNAWNLDISKMDERISRIMFRATLVHTDGRRFELSLGVSAFSGDVNRQQRRQAQCLLFRAWFKRNPELFKGMTDPAIAAYDAAETIYVGCSFFDVELTEHVCHLTEADFSPQEWKIVSLISRRSGSTFEIRIKTNPPIYTRGPNALTLENRSELTRIIEAITDQCLHNEKFLLYSSGTFPTKGGDIASPDEVTLIKSGFVKTTKIVDRDGVPDAIMTVDTTKSPFYKDTSLLKFFTAKMDQLTNSGGGPRGHNGGRERRDGGGNSRKYDDRRSPRDGEIDYDERTVSHYQRQFQDERISDGMLNTLKQSLKGLDCQPIHLKDSKANRSIMIDEIHTGTADSVTFEQKLPDGEMKLTSITEYYLQRYNYRLKFPHLPLVTSKRAKCYDFYPMELMSILPGQRIKQSHMTVDIQSYMTGKMSSLPDQHIKQSKLVLTEYLKLGDQPANRQMDAFRVSLKSIQPIVTNAHWLSPPDMKFANNQLYSLNPTRGVRFQTNGKFVMPARVKSVTIINYDKEFNRNVDMFAEGLAKHCSEQGMKFDSRPNSWKKVNLGSSDRRGTKVEIEEAIRNGVTIVFGIIAEKRPDMHDILKYFEEKLGQQTIQISSETADKFMRDHGGKQTIDNVIRKLNPKCGGTNFLIDVPESVGHRVVCNNSAEMRAKLYAKTQFIGFEMSHTGARTRFDIQKVMFDGDPTVVGVAYSLKHSAQLGGFSYFQESRLHKLTNLQEKMQICLNAYEQSSSYLPETVVVYRVGSGEGDYPQIVNEVNEMKLAARKKKHGYNPKFLVICTQRNSHIRVFPEHINERGKSMEQNVKSGTCVDVPGASHGYEEFILCCQTPLIGTVKPTKYTIIVNDCRWSKNEIMNVTYHLAFAHQVSYAPPAIPNVSYAAQNLAKRGHNNYKTHTKLVDMNDYSYRIKEKHEEIISSEEVDDILMRDFIETVSNDLNAMTINGRNFWA
partner: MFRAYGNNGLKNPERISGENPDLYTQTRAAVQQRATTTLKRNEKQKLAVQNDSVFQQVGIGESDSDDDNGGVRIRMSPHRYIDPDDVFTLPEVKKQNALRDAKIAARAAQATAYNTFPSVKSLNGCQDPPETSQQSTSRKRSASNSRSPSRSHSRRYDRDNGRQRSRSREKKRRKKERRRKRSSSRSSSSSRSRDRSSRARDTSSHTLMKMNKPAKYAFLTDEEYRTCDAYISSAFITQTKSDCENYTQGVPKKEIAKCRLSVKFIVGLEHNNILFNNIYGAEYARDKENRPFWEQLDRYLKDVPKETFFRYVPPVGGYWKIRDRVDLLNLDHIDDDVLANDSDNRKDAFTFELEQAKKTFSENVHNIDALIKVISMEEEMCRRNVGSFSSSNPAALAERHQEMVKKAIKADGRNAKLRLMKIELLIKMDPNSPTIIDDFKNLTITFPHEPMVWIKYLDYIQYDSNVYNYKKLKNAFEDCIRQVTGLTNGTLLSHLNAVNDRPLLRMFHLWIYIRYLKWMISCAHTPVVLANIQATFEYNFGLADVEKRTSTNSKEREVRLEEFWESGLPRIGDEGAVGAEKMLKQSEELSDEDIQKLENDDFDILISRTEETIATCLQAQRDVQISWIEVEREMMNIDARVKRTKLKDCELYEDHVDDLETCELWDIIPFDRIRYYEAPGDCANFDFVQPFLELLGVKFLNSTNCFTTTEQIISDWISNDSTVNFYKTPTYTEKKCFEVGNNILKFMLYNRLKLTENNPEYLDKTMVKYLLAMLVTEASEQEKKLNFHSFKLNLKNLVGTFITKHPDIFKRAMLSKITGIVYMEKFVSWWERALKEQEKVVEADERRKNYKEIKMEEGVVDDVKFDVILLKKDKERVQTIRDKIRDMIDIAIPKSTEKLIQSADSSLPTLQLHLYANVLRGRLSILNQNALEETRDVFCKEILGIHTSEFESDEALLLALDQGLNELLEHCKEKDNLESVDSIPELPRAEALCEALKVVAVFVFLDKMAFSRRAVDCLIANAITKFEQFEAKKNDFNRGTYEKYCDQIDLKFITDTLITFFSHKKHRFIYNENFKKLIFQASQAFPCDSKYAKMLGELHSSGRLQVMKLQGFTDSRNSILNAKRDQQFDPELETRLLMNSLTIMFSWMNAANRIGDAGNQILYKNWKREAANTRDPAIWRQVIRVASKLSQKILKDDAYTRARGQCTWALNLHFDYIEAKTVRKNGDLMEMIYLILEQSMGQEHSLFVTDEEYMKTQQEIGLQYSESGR

Variants of: B1
Conditions: with nrde2_caeel nrde-2, G5EG51

effect of a mutation on the interaction	Variant
disrupting interaction	K80A;R81A;K82A
